Measurements from article PMC11909244, “Rice transcription factor bHLH25 confers resistance to multiple diseases by sensing H2O2”.

Assays:
[1] = biological target: bHLH25 M256V (Oryza sativa (Nipponbare), UniProt Q5SMX4 1-439, M256V); assay: EMSA; 10 mM Tris-HCl pH 7.5, 50 mM KCl, 50 ng/mL poly(dI-dC), 1 mM DTT, ~0.5 ug GST protein in 10 uL, 0.5 uM pmiR397b-G-box or 0.1 uM pCPS2-N-box biotin probe; temperature not stated; settings: protein: recombinant; tags: GST-SUMO; chain copies: 2; label: 5' biotin
[2] = biological target: T1, bHLH25 (Oryza sativa (Nipponbare), UniProt Q5SMX4 1-439); assay: as above; settings: protein: recombinant; tags: GST-SUMO (pGEX-6p-1-SUMO); chain copies: 2; label: 5' biotin
[3] = biological target: T1, bHLH25; assay: competition; unlabeled competitor of N1; 10 mM Tris-HCl pH 7.5, 50 mM KCl, 50 ng/mL poly(dI-dC), 1 mM DTT, ~0.5 ug GST protein in 10 uL, 0.5 uM pmiR397b-G-box or 0.1 uM pCPS2-N-box biotin probe; temperature not stated; settings: protein: recombinant; tags: GST-SUMO (pGEX-6p-1-SUMO); chain copies: 2

T1 sequence (Q5SMX4 entry or part of it): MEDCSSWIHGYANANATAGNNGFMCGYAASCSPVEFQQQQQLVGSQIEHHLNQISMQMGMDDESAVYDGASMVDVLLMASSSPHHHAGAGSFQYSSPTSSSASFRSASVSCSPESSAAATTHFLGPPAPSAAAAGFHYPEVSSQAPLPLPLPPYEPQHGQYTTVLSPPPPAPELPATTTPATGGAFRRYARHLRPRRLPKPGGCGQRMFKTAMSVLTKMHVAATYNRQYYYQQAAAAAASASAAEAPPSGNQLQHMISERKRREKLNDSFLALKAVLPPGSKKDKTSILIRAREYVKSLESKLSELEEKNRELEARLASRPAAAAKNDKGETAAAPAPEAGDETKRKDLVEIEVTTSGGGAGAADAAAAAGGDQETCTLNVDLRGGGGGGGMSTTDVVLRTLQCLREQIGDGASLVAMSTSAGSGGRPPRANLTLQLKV
Chain of bHLH25 M256V (Q5SMX4 entry or part of it M256V | M256V M256V): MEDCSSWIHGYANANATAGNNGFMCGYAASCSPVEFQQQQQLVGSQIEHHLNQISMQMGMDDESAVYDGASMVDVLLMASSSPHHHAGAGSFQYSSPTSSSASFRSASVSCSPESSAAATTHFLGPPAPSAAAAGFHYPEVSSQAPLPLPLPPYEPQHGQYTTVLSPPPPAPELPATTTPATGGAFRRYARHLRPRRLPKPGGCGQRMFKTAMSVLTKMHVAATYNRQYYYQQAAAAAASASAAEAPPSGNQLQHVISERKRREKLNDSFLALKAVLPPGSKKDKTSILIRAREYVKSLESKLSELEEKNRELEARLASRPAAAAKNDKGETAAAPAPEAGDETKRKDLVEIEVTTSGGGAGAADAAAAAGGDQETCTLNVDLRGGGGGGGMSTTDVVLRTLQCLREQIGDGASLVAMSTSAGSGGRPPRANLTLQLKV

Row | Binder | binding result [1] | binding result [2] | binding result [3]
1 | bio-pmiR397b-G-box (dsDNA) DNA 1: GTACTTTGTCACGTCCTGATCGAT DNA 2: ATCGATCAGGACGTGACAAAGTAC | no binding | binds | –
2 | com-pmiR397b-G-box (dsDNA) DNA 1: GTACTTTGTCACGTCCTGATCGAT DNA 2: ATCGATCAGGACGTGACAAAGTAC | – | – | binds
3 | bio-pCPS2-N-box (dsDNA) DNA 1: TTTCACAATCACGAGCTAGACTAA DNA 2: TTAGTCTAGCTCGTGATTGTGAAA | no binding | binds | –
